# Article PMC10837352
# Biological target: N‐terminal TadA‐8e (split site R74) fused to nMagHigh1 (UniProt P68398)
substance,measurement,value
pMag fused to C‐terminal TadA‐8e (split site R74) and nCas9 (from UniProt P68398 75-167),"adenine base editing at the ABES4 and ABES6 targets in E. coli DH10B, level 2‐BLABE (nMagHigh1‐pMag), in the absence of blue light, Sanger sequencing",3%
same,"adenine base editing at the ABES4 and ABES6 targets in E. coli DH10B, level 2‐BLABE (nMagHigh1‐pMag), in the presence of blue light (10 mW cm^−2, 6 h), Sanger sequencing",90%
